From PMC5746249

Legend:
[1] = biological target: LC8 dynein light chain (DYNLL2), full-length, His6-tagged (UniProt Q96FJ2); experiment: SPR; ProteOn XPR36, HTG chip; His6-LC8 immobilised on Ni2+-NTA surface at three densities (1200, 900, 600 RU); peptides injected at five concentrations, 60 ul/min; 20 mM Hepes, 150 mM NaCl, 0.05% Tween-20, 0.1 mM TCEP, 50 uM EDTA, pH 7.5; 1:1 Langmuir model; Kd is the mean of the kinetic and the equilibrium analysis; apparent
[2] = biological target: LC8 dynein light chain (DYNLL2), full-length, His6-tagged (UniProt Q96FJ2); experiment: SPR; ProteOn XPR36, HTG chip; His6-LC8 immobilised on Ni2+-NTA at three densities (1200, 900, 600 RU); peptides injected at five concentrations, 60 ul/min, 400 s, dissociation 600 s; 20 mM Hepes, 150 mM NaCl, 0.05% Tween-20, 0.1 mM TCEP, 50 uM EDTA, pH 7.5; 1:1 Langmuir global fit; Kd is the mean of the kinetic and the equilibrium analysis, SD from three individual Kd values

LC8 dynein light chain (DYNLL2), full-length, His6-tagged, sequence (Q96FJ2 whole entry): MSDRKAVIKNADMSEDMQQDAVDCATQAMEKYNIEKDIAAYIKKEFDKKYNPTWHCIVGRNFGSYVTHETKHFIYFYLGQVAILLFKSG

Row | Substance | Kd [1] [nM] | Kd [2] [nM]
1 | MPHOSPH9 LC8 binding motif peptide (motif start 909) | 1200 | –
2 | MPHOSPH9 LC8 binding motif peptide (start 909) | – | 1200
